Experimental data published in patent US20220041738A1 (SAITAMA MEDICAL UNIVERSITY, published 2022).
Residue numbers refer to the chain shown, from its start. One block for each binder: values may come before it.

How the values were obtained:
[1] = biological target: T1, human ALK2-Q207E on cells (human, UniProt Q04771 21-509); assay: immunofluorescence (legend of FIG. 4)
T1 sequence: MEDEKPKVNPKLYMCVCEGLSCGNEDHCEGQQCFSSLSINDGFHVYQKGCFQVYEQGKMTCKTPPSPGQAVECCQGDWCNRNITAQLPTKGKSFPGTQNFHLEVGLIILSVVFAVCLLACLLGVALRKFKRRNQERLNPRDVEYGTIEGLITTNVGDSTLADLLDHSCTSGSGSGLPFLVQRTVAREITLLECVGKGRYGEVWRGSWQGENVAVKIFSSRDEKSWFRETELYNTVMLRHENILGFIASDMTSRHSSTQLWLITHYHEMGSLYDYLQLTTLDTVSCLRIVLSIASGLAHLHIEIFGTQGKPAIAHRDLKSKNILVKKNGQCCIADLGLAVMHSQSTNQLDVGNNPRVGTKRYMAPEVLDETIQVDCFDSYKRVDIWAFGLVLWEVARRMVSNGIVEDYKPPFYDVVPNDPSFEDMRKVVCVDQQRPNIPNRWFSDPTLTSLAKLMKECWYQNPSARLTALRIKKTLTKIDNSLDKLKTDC
Description: (§1) Mouse C2C12 cells were seeded into a 96-well plate (Greiner Bio-One) at 0.5×10³ cells/well, and cultured in 15% FBS-containing DMEM medium overnight under the conditions of 5% CO₂ at 37° C. On the following day, the C2C12 cells were transfected with each of a wild-type human ALK2 cDNA integrated into pcDEF3; pcDEF3/human ALK2-L196P, pcDEF3/human ALK2-P197_F198delinsL, pcDEF3/human ALK2-R202I, pcDEF3/human ALK2-R206H, pcDEF3/human ALK2-Q207E, pcDEF3/human ALK2-R258S, pcDEF3/human ALK2-G325A, pcDEF3/human ALK2-G328E, pcDEF3/human ALK2-G328R, pcDEF3/human ALK2-G328W, pcDEF3/human ALK2-G356D, and pcDEF3/human ALK2-R375P, which are variants identified in FOP; and pcDEF3 as a control, using Lipofectamine 2000 (Invitrogen), and further cultured overnight.
(§2) The C2C12 cells were fixed with 10% neutral formalin (Nacalai Tesque, Japan) for 20 minutes at room temperature, and then blocked with 10% goat normal serum for 30 minutes. After the blocking agent was removed, purified IgG diluted to 10 μg/mL with the blocking agent was added, and the cells were left for 1 hour at room temperature. After the cells were washed with PBS three times, Goat Alexa 594-conjugated anti-rat IgG (Invitrogen) diluted to 1:1000 with the blocking agent was added, and the cells were left for 1 hour at room temperature. After the cells were washed with PBS three times, the cells were fixed with 10% neutral formalin for 15 minutes at room temperature, and nuclear-stained with DAPI (LifeTechnologies). Fluorescent signals were analyzed with a fluorescence microscope BZ-9000 (Keyence).

[2] = biological target: T2, human ALK2-G328E on cells (human, UniProt Q04771 21-509); assay: immunofluorescence (legend of FIG. 4)
T2 sequence: T1 sequence with E187Q, G308E
Description: as §1, §2

[3] = biological target: T3, human ALK2-G328W on cells (human, UniProt Q04771 21-509); assay: immunofluorescence (legend of FIG. 4)
T3 sequence: T1 sequence with E187Q, G308W
Description: as §1, §2

[4] = biological target: T4, Mouse ALK2-His&Fc (Sino Biological Inc., Cat. #50297-M03H) (mouse, UniProt P37172 21-123); assay: ELISA, antigen coated at 1 µg/ml, hybridoma culture supernatant, ALP anti-rat IgG, O.D.492
T4 construct: Bought product; also called mALK2-Fc; not shown: His tag and Fc of the bought product
T4 sequence: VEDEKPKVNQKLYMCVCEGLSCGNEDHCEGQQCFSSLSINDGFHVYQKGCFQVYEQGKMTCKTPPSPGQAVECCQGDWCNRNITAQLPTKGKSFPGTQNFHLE
Description: One week after the cell fusion, using each culture supernatant, clones recognizing mouse ALK2-His&Fc used as the antigen were selected by the enzyme-linked immunosorbent assay (ELISA), and clones recognizing only human Fc (Sino Biological Inc.) were excluded. ELISA was performed as follows.
First, the antigen diluted to 1 μg/ml with PBS was immobilized onto a 96-well ELISA plate (NUNC, Cat. #442404) for 2 hours at room temperature or overnight at 4° C. The immobilized solution was removed, and the plate was blocked with a 0.5% skim milk solution dissolved in PBS for 30 minutes at room temperature. Next, the above-described culture supernatant of hybridomas was added, and the plate was left for 1 hour at room temperature. After the plate was washed, an ALP-labeled anti-rat IgG antibody (SBA, Inc.) diluted with 0.5% skim milk to 1:2500 was added, and the plate was further left for 1 hour at room temperature. After the plate was washed, a phenyl phosphate substrate was reacted for 20 minutes at room temperature, and then absorbance at a wavelength of 492 nm was measured.

binding result [1]: binds | binding result [2]: binds | binding result [3]: binds | binding result [4]: binds
B1: rat anti-ALK2 monoclonal antibody A2-11E (antibody, V domains shown)
VH: EVQLVETGGGLVQPGRSLKLSCVASGFTFSNYYMYWIRQAPGKGLEWISSINTDGGSTYYPDSVKGRFAISRDNAENTVYLQMNSLRSEDTATYYCAKSTPNIPLAYWGQGTLVTVSS
VL: DIQMTQSPSLLSASVGDRVTLSCKASQNIYKYLNWFQQKLGEAPKLLIYYSNSLQTGIPSRFSGSGSGTDFTLTISSLQPEDVAIYFCFQYSSGPTFGPGTKLELKR
notes: Rat monoclonal IgG from a hybridoma; also called 11E2

binding result [1]: binds | binding result [2]: binds | binding result [3]: binds | binding result [4]: binds
B2: rat anti-ALK2 monoclonal antibody A2-15A (antibody, V domains shown)
VH: EVQLVESGGGLVQPGRSLKLSCAASGFTFSHYYMAWVRQAPTKGLEWVASITNSGGSINYRDSVKGRFTISRDNAKSTLYLQMDSLRSEDTATYYCTREGGENYGGYPPFAYWGQGTLVTVSS
VL: DIVLTQSPALAVSLGQRATISCRANQGVSLSRYNLMHWYQQKPGQKPKLLIYRSSNLASGIPARFSGSGSGTDFTLTINPVQADDIATYYCQQSRESPFTFGAGTKLELKR
notes: Rat monoclonal IgG from a hybridoma; also called 15A6

binding result [4]: binds
B3: rat anti-ALK2 monoclonal antibody A2-27D (antibody, V domains shown)
VH: EVQLVESGGGLVQPGRSLKLSCLASGSTFSNYGMKWIRQAPGKGLEWVASISRSSTYIYYADTVKGRFTISRDNARNTLYLQMTSLRSEDTALYYCAAAISTPFYWYFDFWGPGTVVTVSS
VL: EIVLTQSPTTMAASPGEKVTLNCLASSSVSYMTWYQQKSGASPKLWIYGTSNLASGVPNRFSGSGSGTSYSLAISSMEAEDVATYYCLHLTSYPPYTFGAGTKLELKR
notes: Rat monoclonal IgG from a hybridoma; also called 27D11

binding result [4]: binds
B4: rat anti-ALK2 monoclonal antibody A2-25C (antibody, V domains shown)
VH: EVQLVESGGGLVQPGGSLKLSCAASGFTFSYYAMSWVCQAPTKGLEWVASISRGGDNTYYRDTVKGRFTTSRDNAKNTLYLQMDSLRSEDTATYYCARLNYNNYFDYWGQGVMVTVSS
VL: DIQMTQSPASLSASLEEIVTITCQASQDIGNWLSWYQQKPGKSPQLLIYGATSLADGVPSRFSGSRSGTQYSLKISRLRVEDIGIYYCLQAYSAPFTFGSGTKLEIKR
notes: Rat monoclonal IgG from a hybridoma; also called 25C11
